Assay results published in US20230140293A1.
Where two headings read alike, the source gives them in different places.

What was measured:
[1] = target: HIV-1 CH0505TF (CH505 transmitted/founder) Env on Env-pseudotyped virus produced in 293T cells (HIV-1); test: cell-based or functional assay
[2] = target: HIV-1 CH0505TF.S365P Env on Env-pseudotyped virus produced in 293S GnTI- cells (HIV-1); test: cell-based or functional assay
[3] = target: HIV-1 CH0505TF.G458Y Env on Env-pseudotyped virus produced in 293T cells (HIV-1); test: cell-based or functional assay
[4] = target: HIV-1 CH0505TF.N280D Env on Env-pseudotyped virus produced in 293S GnTI- cells (HIV-1); test: cell-based or functional assay
[5] = target: HIV-1 CH0505TF.S365P Env on Env-pseudotyped virus produced in 293T cells (HIV-1); test: cell-based or functional assay
[6] = target: HIV-1 CH0505TF.N280D Env on Env-pseudotyped virus produced in 293T cells (HIV-1); test: cell-based or functional assay
[7] = target: HIV-1 CH0505TF Env on Env-pseudotyped virus produced in 293S/GnTI-/- cells (Man5-enrichment) (HIV-1); test: cell-based or functional assay
CH505 M5 gp120 (HIV-1) = test: ELISA, gp120 on plate
[8] = target: CH505 w030.28 gp120 (HIV-1); test: ELISA, gp120 on plate
CH505 M11 gp120 (HIV-1) = test: ELISA, gp120 on plate
[9] = target: CH505 w020.14 gp120 (HIV-1); test: ELISA, gp120 on plate
[10] = target: CH505 w053.31 gp120 (HIV-1); test: ELISA, gp120 on plate
[11] = target: HIV-1 426c.TM (N276D/N460D/N463D) Env on Env-pseudotyped virus produced in 293T cells (HIV-1); test: cell-based or functional assay
[12] = target: HIV-1 Env 426c.SM (N276D), Env-pseudotyped virus produced in 293S GnTI- cells (Man5-enriched) (HIV-1 clade C strain 426c); test: cell-based or functional assay
[13] = target: HIV-1 clade C strain 426c Env on Env-pseudotyped virus produced in 293s/GnTI-/- cells (Man5-enrichment) (HIV-1); test: cell-based or functional assay
[14] = target: CH0505TF.gly3.276 Env, pseudotyped virus produced in 293S GnTI- cells (HIV-1); test: cell-based or functional assay
[15] = target: CH0505TF Env, pseudotyped virus produced in 293S GnTI- cells (HIV-1); test: cell-based or functional assay
[16] = target: CH0505TF.G458Y Env, pseudotyped virus produced in 293S GnTI- cells (HIV-1); test: cell-based or functional assay
[17] = target: CH0505TF.gly3.461 Env, pseudotyped virus produced in 293S GnTI- cells (HIV-1); test: cell-based or functional assay
[18] = target: HIV-1 Env 426c.TM (N276D.N460D.N463D), Env-pseudotyped virus produced in 293T cells (HIV-1 clade C strain 426c); test: cell-based or functional assay
[19] = target: HIV-1 Env 426c, Env-pseudotyped virus produced in 293S GnTI- cells (Man5-enriched) (HIV-1 clade C strain 426c); test: cell-based or functional assay
[20] = target: CH0505TF Env, Env-pseudotyped virus produced in 293T cells (HIV-1); test: cell-based or functional assay
[21] = target: HIV-1 CH0505TF.gly3.197 Env on Env-pseudotyped virus produced in 293S/GnTI-/- cells (Man5-enrichment) (HIV-1); test: cell-based or functional assay
[22] = target: HIV-1 CH0505TF.gly4 Env on Env-pseudotyped virus produced in 293T cells (HIV-1); test: cell-based or functional assay
[23] = target: HIV-1 426c.TM (N276D/N460D/N463D) Env on Env-pseudotyped virus produced in 293s/GnTI-/- cells (Man5-enrichment) (HIV-1); test: cell-based or functional assay
[24] = target: HIV-1 Env 426c.TM4 (S278R.G471S.N460D.N463D), Env-pseudotyped virus produced in 293S GnTI- cells (Man5-enriched) (HIV-1 clade C strain 426c); test: cell-based or functional assay
[25] = target: HIV-1 426c.DM (N460D/N463D) Env on Env-pseudotyped virus produced in 293s/GnTI-/- cells (Man5-enrichment) (HIV-1); test: cell-based or functional assay
[26] = target: CH0505.w4.3 Env, Env-pseudotyped virus produced in 293T cells (HIV-1); test: cell-based or functional assay
[27] = target: HIV-1 Env 426c.SM (N276D), Env-pseudotyped virus produced in 293T cells (HIV-1 clade C strain 426c); test: cell-based or functional assay
[28] = target: HIV-1 Env 426c.DM (N460D.N463D), Env-pseudotyped virus produced in 293T cells (HIV-1 clade C strain 426c); test: cell-based or functional assay
[29] = target: HIV-1 426c.SM (N276D) Env on Env-pseudotyped virus produced in 293T cells (HIV-1); test: cell-based or functional assay
[30] = target: CH0505TF.gly4 Env, pseudotyped virus produced in 293S GnTI- cells (HIV-1); test: cell-based or functional assay
[31] = target: HIV-1 Env 426c, Env-pseudotyped virus produced in 293T cells (HIV-1 clade C strain 426c); test: cell-based or functional assay
[32] = target: HIV-1 CH0505TF Env on Env-pseudotyped virus produced in 293S/GnTI-/- cells (Man5-enrichment) (HIV-1); test: cell-based or functional assay; remark: listed apart in the source
[33] = target: HIV-1 Env 426c.DM (N460D.N463D), Env-pseudotyped virus produced in 293S GnTI- cells (Man5-enriched) (HIV-1 clade C strain 426c); test: cell-based or functional assay
[34] = target: HIV-1 CH0505TF.gly3.197 Env on Env-pseudotyped virus produced in 293T cells (HIV-1); test: cell-based or functional assay

CH103 (antibody)
IC50 (µg/ml) in TZM-bl [1]: 1.9 µg/mL
IC50 (µg/ml) in TZM-bl [2]: 1.7 µg/mL
IC50 (µg/ml) in TZM-bl [3]: 5.8 µg/mL
IC50 (µg/ml) in TZM-bl [4]: 0.24 µg/mL
IC50 (µg/ml) in TZM-bl [5]: > 50 µg/mL
IC50 (µg/ml) in TZM-bl [6]: 1.2 µg/mL
IC50 (µg/ml) in TZM-bl [7]: 0.57 µg/mL
log AUC (CH505 M5 gp120 (HIV-1)): 9.8 log AUC
log AUC [8]: 12.8 log AUC
log AUC (CH505 M11 gp120 (HIV-1)): 13.4 log AUC
log AUC [9]: 12.6 log AUC
log AUC [10]: 13.6 log AUC
ID50/IC50 in TZM-bl [11]: 5.2 µg/mL
IC50 (µg/ml) in TZM-bl [12]: 2.2 µg/mL
ID50/IC50 in TZM-bl [13]: 5.3 µg/mL
IC50 (µg/ml) in TZM-bl [14]: 0.007 µg/mL
IC50 (µg/ml) in TZM-bl [15]: 0.57 µg/mL
IC50 (µg/ml) in TZM-bl [16]: 0.44 µg/mL
IC50 (µg/ml) in TZM-bl [17]: 0.009 µg/mL
IC50 (µg/ml) in TZM-bl [18]: 5.2 µg/mL
IC50 (µg/ml) in TZM-bl [19]: 5.3 µg/mL
IC50 (µg/ml) in TZM-bl [20]: 1.9 µg/mL
IC50 (ug/ml) in TZM-bl cells [21]: 0.19 µg/mL
IC50 (ug/ml) in TZM-bl cells [22]: 0.01 µg/mL
ID50/IC50 in TZM-bl [23]: 0.09 µg/mL
IC50 (µg/ml) in TZM-bl [24]: 0.48 µg/mL
ID50/IC50 in TZM-bl [25]: 0.63 µg/mL
IC50 (µg/ml) in TZM-bl [26]: 0.31 µg/mL
IC50 (µg/ml) in TZM-bl [27]: > 40 µg/mL
IC50 (µg/ml) in TZM-bl [28]: 6.1 µg/mL
ID50/IC50 in TZM-bl [29]: > 40 µg/mL
IC50 (µg/ml) in TZM-bl [30]: 0.005 µg/mL
IC50 (µg/ml) in TZM-bl [31]: > 40 µg/mL
IC50 (ug/ml) in TZM-bl cells [32]: 0.67 µg/mL
IC50 (µg/ml) in TZM-bl [33]: 0.63 µg/mL
IC50 (ug/ml) in TZM-bl cells [34]: 1.6 µg/mL

CH235 (antibody)
IC50 (µg/ml) in TZM-bl [1]: 0.3 µg/mL
IC50 (µg/ml) in TZM-bl [2]: 0.02 µg/mL
IC50 (µg/ml) in TZM-bl [3]: 0.1 µg/mL
IC50 (µg/ml) in TZM-bl [4]: 3.4 µg/mL
IC50 (µg/ml) in TZM-bl [5]: 0.6 µg/mL
IC50 (µg/ml) in TZM-bl [6]: > 25 µg/mL
IC50 (µg/ml) in TZM-bl [7]: 0.03 µg/mL
log AUC (CH505 M5 gp120 (HIV-1)): 11.4 log AUC
log AUC [8]: 6.7 log AUC
log AUC (CH505 M11 gp120 (HIV-1)): 7.6 log AUC
log AUC [9]: 9.9 log AUC
log AUC [10]: 1.1 log AUC
ID50/IC50 in TZM-bl [11]: > 50 µg/mL
IC50 (µg/ml) in TZM-bl [12]: > 25 µg/mL
ID50/IC50 in TZM-bl [13]: > 25 µg/mL
IC50 (µg/ml) in TZM-bl [14]: 0.02 µg/mL
IC50 (µg/ml) in TZM-bl [15]: 0.03 µg/mL
IC50 (µg/ml) in TZM-bl [16]: < 0.02 µg/mL
IC50 (µg/ml) in TZM-bl cells [16]: < 0.005 µg/mL
IC50 (µg/ml) in TZM-bl [17]: 0.011 µg/mL
IC50 (µg/ml) in TZM-bl [18]: > 50 µg/mL
IC50 (µg/ml) in TZM-bl [19]: > 25 µg/mL
IC50 (µg/ml) in TZM-bl [20]: 0.3 µg/mL
IC50 (ug/ml) in TZM-bl cells [21]: 0.006 µg/mL
IC50 (ug/ml) in TZM-bl cells [22]: 0.022 µg/mL
ID50/IC50 in TZM-bl [23]: > 25 µg/mL
IC50 (µg/ml) in TZM-bl [24]: > 25 µg/mL
ID50/IC50 in TZM-bl [25]: > 25 µg/mL
IC50 (µg/ml) in TZM-bl [26]: 0.4 µg/mL
IC50 (µg/ml) in TZM-bl [27]: > 50 µg/mL
IC50 (µg/ml) in TZM-bl [28]: > 50 µg/mL
ID50/IC50 in TZM-bl [29]: > 50 µg/mL
IC50 (µg/ml) in TZM-bl [30]: 0.004 µg/mL
IC50 (µg/ml) in TZM-bl [31]: > 50 µg/mL
IC50 (ug/ml) in TZM-bl cells [32]: 0.03 µg/mL
IC50 (µg/ml) in TZM-bl [32]: < 0.02 µg/mL
IC50 (µg/ml) in TZM-bl [33]: > 25 µg/mL
IC50 (ug/ml) in TZM-bl cells [34]: 0.16 µg/mL
